The target in the experiment is biotinylated PSD95 (PDZ domains 1-3, residues 1-435 of human PSD95, fused to a biotin acceptor peptide) (human, UniProt P78352 1-435, biotin at its internal biotin acceptor site).

As a reminder, the IC50 is the midpoint of a concentration-inhibition curve. A low value points to inhibition by little substance.

biotinylated PSD95 (PDZ domains 1-3, residues 1-435 of human PSD95, fused to a biotin acceptor peptide), sequence (P78352 1-435): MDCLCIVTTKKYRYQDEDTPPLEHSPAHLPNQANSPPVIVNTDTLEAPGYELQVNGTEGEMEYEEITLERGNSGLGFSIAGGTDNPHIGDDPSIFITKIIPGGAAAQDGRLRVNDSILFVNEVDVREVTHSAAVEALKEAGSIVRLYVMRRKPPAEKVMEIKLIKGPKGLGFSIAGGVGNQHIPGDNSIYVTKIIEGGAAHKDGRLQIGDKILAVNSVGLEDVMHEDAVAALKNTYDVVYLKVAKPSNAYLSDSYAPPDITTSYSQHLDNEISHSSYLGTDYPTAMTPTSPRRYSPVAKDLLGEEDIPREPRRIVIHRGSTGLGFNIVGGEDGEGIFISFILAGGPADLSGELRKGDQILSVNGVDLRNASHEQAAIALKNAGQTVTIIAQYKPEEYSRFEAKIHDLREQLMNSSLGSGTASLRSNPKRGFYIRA

B1: Tat-nNOS (1-299) fusion protein (other)
chain: YGRKKRRQRRRMEDHMFGVQQIQPNVISVRLFKRKVGGLGFLVKERVSKPPVIISDLIRGGAAEQSGLIQAGDIILAVNGRPLVDLSYDSALEVLRGIASETHVVLILRGPEGFTTHLETTFTGDGTPKTIRVTQPLGPPTKAVDLSHQPPAGKEQPLAVDGASGPGNGPQHAYDDGQEAGSLPHANGLAPRPPGQDPAKKATRVSLQGRGENNELLKEIEPVLSLLTSGSRGVKGGAPAKAEMKDMGIQVDRDLDGKSHKPLPLGVENDRVFNDLWGKGNVPVVLNNPYSEKEQPPTSGKQSPTKNGSP
For B1, the midpoint of inhibition, the IC50, lay at 300 nM.
